Assay results from US8420776B2, “Ube2G2 binding domain in the ubiquitin ligase gp78 and methods of use thereof” (The United States of America, as Represented by the …, priority 2004, dated 2013).

Tests used:
UbcH5B = molecular target: T1, UbcH5B (Homo sapiens, UniProt P62837); assay: GST pull-down binding of in vitro translated UbcH5B; conditions: GST fusion pull-down
T1 construct: made in house; host or cells: in vitro translation in wheat germ
Description: GST fusions were purified from E. Coli. Binding was carried out using equi-molar amount of fusion proteins measured by Commassie blue staining. Generally, 20 picomoles/sample were used. In vitro translated E2 was generated by coupled transcription and translation using 35S methionine in either wheat germ or rabbit reticulocyte lysate. Binding assays using in vitro translated E2 was carried out by incubating GST protein pre-bound to Glutathione-sepharose 4B with […] of ^35S-methionine labeled E2 in binding buffer (25 mM Tris-HCl, pH 7.4; 50 mM NaCl, 5 mM DTT; and 0.5% NP-40) overnight at 4° C. Beads were washed with binding buffer and resolved by SDS-PAGE under reducing conditions. Analysis was by Storm PhosphoImager (Applied Biosystems, Foster City, Calif.). Direct binding assays used wild type His6-MmUbc7 (His6-Ube2G2) and Glutathione-sepharose bound GST fusions. Beadbound GST protein was incubated with 100 ng purified His6-MmUbc7 in binding buffer and washed and eluted as above. After transfer to Hybond-P (Amersham Biosciences) binding was assessed with anti-His6 followed by Enhanced Chemiluminescence ECL; Pierce). Ubiquitin binding studies were performed with binding and washing as above using 1 μg K48 tetra-ubiquitin produced as described (Piotrowski et al., 1997). Detection was by anti-ubiquitin immunoblotting. […]

Myc-Ube2G2 = molecular target: T2, Myc-Ube2G2 (Mus musculus, UniProt P60605); assay: Co-immunoprecipitation with co-expressed Myc-Ube2G2 in cells; assay type: cell-based; conditions: anti-Myc IP, anti-gp78 IB; MG132 8 hr
T2 construct: expressed in transfected cells; host or cells: HEK 293T
T2 sequence (P60605 1-165): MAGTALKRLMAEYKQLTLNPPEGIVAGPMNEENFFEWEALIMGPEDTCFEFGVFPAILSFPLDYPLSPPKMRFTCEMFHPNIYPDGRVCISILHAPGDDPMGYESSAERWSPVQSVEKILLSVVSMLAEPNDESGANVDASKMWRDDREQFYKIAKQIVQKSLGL
Description: (§1) Transfections of HT1080, NIH 3T3 and HEK 293T cells were carried out ˜24 hr after plating using Polyfect (Qiagen, Valencia, Calif.) and cells harvested after ˜48 hr. J558 cells were transfected by electroporation using Bio-rad GENE pulser II at settings of 250 v, 950uF. Vector without insert was used to equalize total plasmid. In most experiments 0.15 μg of pEGFP-C1 served as an internal control. For experiments not involving immunoprecipitation, 6×10^5 cells were plated in 6 well plates and cell lysis was with Mammalian Protein Extraction Reagent (Pierce). For immunoprecipitation, 2.4×10^6 cells were seeded in 100 mm dishes and cells were lysed in RIPA buffer (1×PBS, 1% Nonidet P40. 0.5% sodium deoxycholate, 0.1% SDS). Lysis buffers were supplemented with Protease Inhibitor Cocktail (Sigma) and 10 mM iodoacetamide. Supernatants were analyzed after a 10,000×g centrifugation using standard techniques for immunoprecipitation, SDS-PAGE, immunoblotting and ECL. Treatment of cells with MG132 (Sigma) was at 50 μM for eight hr. Cycloheximnide was used at 50 μg/ml. All cells were collected at the end of the six hr chase.
FIG. 5 depicts the results of immunoprecipitation of Ube2G2 (MmUbc7) from HEK 293T cells co-transfected with a plasmid encoding myc-tagged MmUbc7/Ube2G2 together with s plasmid encoding various forms of gp78. HEK 293T cells were transfected with a plasmid encoding myc-tagged MmUbc7/Ube2G2 together with plasmids encoding various forms of gp78. After 48 hours, cells were harvested and co-immuntoprecipitated with an anti-Myc tage. Anti-gp78 was used for detection. “R2M” indicates a mutation of two crucial residues in the RING finger. “T” indicates C terminal truncations at the indicated amino acids. ΔB is the mutation indicated above in FIG. 4 in the context of the full length gp78 and “Cue12M” indicates mutations in the Cue domain of gp78.
To confirm the significance of the Ube2G2 binding site in cells, a variety of mutations and truncations of full-length gp78 were tested for binding of co-expressed Myc-Ube2G2 (FIG. 19A). Cells were treated with the proteasome inhibitor MG132 in an attempt to equalize levels of the various forms of gp78.

ERAD substrate CD3-δ = assay: CD3-δ level in co-transfected cells by immunoblotting; assay type: cell-based; conditions: co-transfection with CD3-δ; immunoblot
Description: as §1
FIG. 7 depicts the stabilization of CD3-δ protein in cells transfected with the G2BD, but not with the G2BD with amino acids 579-584 (of SEQ ID NO:2) mutated. HEK 293T cells were transfected with the ERAD substrate CD3-δ along with the indicated GFP fusions of gp78. The left and right sides are two separate experiments.
To test this, GFP fusions of either a minimal E2 binding domain (GFP-574-611) or a more extended region that includes the C-terminus of gp78 (GFP-574-643) were evaluated (FIG. 21A). […] To assess this further, the C-terminal region of gp78 was fused to the eight amino acid Flag tag. […] Mdm2 is a RING finger E3 for both itself and p53 that is neither an ERAD substrate nor known to utilize Ube2G2 as an E2. […] To establish with certainty that the effect observed with expression of the Ube2G2 binding site is a consequence of binding endogenous E2, and not due to other unanticipated effects, cells were co-transfected with increasing amounts of Ube2G2 (FIG. 21C, lanes 3 and 4). […] These findings clearly establish that the isolated E2 binding site has the potential to markedly alter ERAD of CD3-δ. To ensure the effect observed was not peculiar to one substrate, TCR-α was evaluated (FIG. 21D).

gp78 [1] = assay: gp78 level in transfected cells by immunoblotting; assay type: cell-based; conditions: full-length gp78 forms; immunoblot
Description: as §1, with “All cells were collected at the end of the six hr chase.” left out
(§2) gp78 is degraded in a proteasome-dependent manner, and deletion of the entire cytoplasmic domain results in its stabilization. […] To determine the significance of the RING finger, Cue domain and Ube2G2 binding site on gp78 stability, mutations of each were evaluated within full-length gp78. […]

gp78 [2] = assay: gp78 ubiquitylation in transfected cells (IP anti-gp78, IB anti-ubiquitin); assay type: cell-based; conditions: 50 μM MG132 eight hours
Description: FIGS. 20A-20E depict the requirement of multiple domains of gp78 to target itself and a heterologous ERAD substrate. (FIG. 20A) Cells were co-transfected with the indicated forms of full length gp78 together with CD3-δ and lysates analyzed by IB. (B) Cells were transfected with wild type and mutant gp78 plasmids as indicated. Samples were treated with 50 μM MG132 for eight hours, lysates IP'ed with anti-gp78 followed by […] with either antiubiquitin (upper) or anti-gp78 (lower). Arrow in upper panel indicates migration of unmodified gp78. (FIGS. 20C and 20D) Cells were co-transfected with HA-CD3-δ and wild type (WT) or mutant forms of gp78. Cells were treated with cycloheximide (CHX) as indicated. (FIG. 20E) Graphic representation of CD3-δ levels from FIGS. 20C and 20D (fall length gp78 transfections only), Cue-m1, 2 is the average of data shown in FIGS. 20C and 20D.
as §1, with “Lysis buffers were supplemented with Protease Inhibitor Cocktail (Sigma) and 10 mM iodoacetamide.” left out, “Treatment of cells with MG132 (Sigma) was at 50 μM for eight hr. Cycloheximnide was used at 50 μg/ml. All cells were collected at the end of the six hr chase.” left out
as §2

T1 sequence (P62837 whole entry, the tested form may be a part): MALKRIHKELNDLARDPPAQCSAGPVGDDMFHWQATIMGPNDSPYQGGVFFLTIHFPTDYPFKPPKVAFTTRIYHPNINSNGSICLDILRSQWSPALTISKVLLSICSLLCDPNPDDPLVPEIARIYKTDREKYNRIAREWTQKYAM

Row | Molecule | binding to in vitro translated UbcH5B (UbcH5B) | E2 association of full-length gp78 forms with co-expressed Myc-Ube2G2 (Myc-Ube2G2) | effect on CD3-δ level (stabilization) (ERAD substrate CD3-δ) | gp78 level compared to wild type (gp78 [1]) | gp78 ubiquitylation (ubiquitin immunoreactivity) (gp78 [2])
1 | AO7: GST fusion of the RING finger and surrounding regions of the unrelated E3 enzyme AO7 (protein, left off: a dimerising Fc or GST) QIHKISQALGHVAKEGLGTAMLYELIEKGKEILTDNNIPHGQCVICLYGFQEKEAFTKTPCYHYFHCHCLARYIQHMEQELTTQEQEQERQHVVTKQKAVGVQCPVCREPLVYDLASLKAAPEPQQPMELYQPSAESLRQQEELKLLYQRQQEKGGIIDLEAERNRYF | did bind |  |  |  | 
2 | gp78E2-m2: full-length gp78 with residues 579-584 mutated (label E2-m2 in b279) (protein) MPLLFLERFPWPSLRTYTGLSGLALLGTIISAYRALSQPEAGPGEPDQLTASLQPEPPAPARPSAGGPRARDVAQYLLSDSLFVWVLVNTACCVLMLVAKLIQCIVFGPLRVSERQHLKDKFWNFIFYKFIFIFGVLNVQTVEEVVMWCLWFAGLVFLHLMVQLCKDRFEYLSFSPTTPMSSHGRVLSLLVAMLLSCCGLAAVCSITGYTHGMHTLAFMAAESLLVTVRTAHVILRYVIHLWDLNHEGTWEGKGTYVYYTDFVMELTLLSLDLMHHIHMLLFGNIWLSMASLVIFMQLRYLFHEVQRRIRRHKNYLRVVGNMEARFAVATPEELAVNNDDCAICWDSMQAARKLPCGHLFHNSCLRSWLEQDTSCPTCRMSLNIADNNRVREEHQGENLDENLVPVAAAEGRPRLNQHNHFFHFDGSRIASWLPSFSVEVMHTTNILGITQASNSQLNAMAHQIQEMFPQVPYHLVLQDLQLTRSVEITTDNILEGRIQVPFPTQRSDSIRPALNSPVERPSSDQEEGETSAQTERVPLDLSPRLEETLDFGEVEVEPSEVEDFEARGSRFSKSADERAAAGGGRKDELLQQARKRFLNKSSEDDAASESFLPLEGASSDPVTLRRRMLAAAAERRLQKQQTS |  | loss of E2 binding | neither significantly stabilized CD3-δ nor enhanced its loss | increased gp78 | dramatic decrease in ubiquitin immunoreactivity
3 | gp78Cue-m1, 2: full-length gp78 with mutations in the Cue domain (label Cue-m1, 2 in b279) (protein) MPLLFLERFPWPSLRTYTGLSGLALLGTIISAYRALSQPEAGPGEPDQLTASLQPEPPAPARPSAGGPRARDVAQYLLSDSLFVWVLVNTACCVLMLVAKLIQCIVFGPLRVSERQHLKDKFWNFIFYKFIFIFGVLNVQTVEEVVMWCLWFAGLVFLHLMVQLCKDRFEYLSFSPTTPMSSHGRVLSLLVAMLLSCCGLAAVCSITGYTHGMHTLAFMAAESLLVTVRTAHVILRYVIHLWDLNHEGTWEGKGTYVYYTDFVMELTLLSLDLMHHIHMLLFGNIWLSMASLVIFMQLRYLFHEVQRRIRRHKNYLRVVGNMEARFAVATPEELAVNNDDCAICWDSMQAARKLPCGHLFHNSCLRSWLEQDTSCPTCRMSLNIADNNRVREEHQGENLDENLVPVAAAEGRPRLNQHNHFFHFDGSRIASWLPSFSVEVMHTTNILGITQASNSQLNAMAHQIQEGGRQVPYHLRLQVDQLTRSVEITTDNILEGRIQVPFPTQRSDSIRPALNSPVERPSSDQEEGETSAQTERVPLDLSPRLEETLDFGEVEVEPSEVEDFEARGSRFSKSADERQRMLVQRKDELLQQARKRFLNKSSEDDAASESFLPLEGASSDPVTLRRRMLAAAAERRLQKQQTS |  |  | marked increase in CD3-δ | increased gp78 | dramatic decrease in ubiquitin immunoreactivity
